Test results published in the Immune Epitope Database (IEDB).

Key:
Test in all cases: IEDB peptide-MHC binding, purified MHC/competitive/fluorescence; filed as Kd, often an IC50 or EC50 that approximates it; ≥ and ≤ were set here for values at or beyond the usual limits of such assays
[1] = biological target: HLA-A*01:01; conditions: source organism: Entamoeba histolytica HM-1:IMSS
[2] = biological target: HLA-A*02:01
[3] = biological target: HLA-A*02:19
[4] = biological target: HLA-A*03:01; conditions: source organism: Entamoeba histolytica HM-1:IMSS
[5] = biological target: HLA-A*11:01; conditions: source organism: Entamoeba histolytica HM-1:IMSS
[6] = biological target: HLA-A*23:01
[7] = biological target: HLA-A*24:03
[8] = biological target: HLA-A*26:01
[9] = biological target: HLA-A*29:02
[10] = biological target: HLA-A*30:01; conditions: source organism: Entamoeba histolytica HM-1:IMSS
[11] = biological target: HLA-A*30:02; conditions: source organism: Entamoeba histolytica HM-1:IMSS
[12] = biological target: HLA-A*66:01; conditions: source organism: Entamoeba histolytica HM-1:IMSS
[13] = biological target: HLA-A*68:02
[14] = biological target: HLA-B*08:01; conditions: source organism: Entamoeba histolytica HM-1:IMSS
[15] = biological target: HLA-B*14:02; conditions: source organism: Entamoeba histolytica HM-1:IMSS
[16] = biological target: HLA-B*15:01; conditions: source organism: Entamoeba histolytica HM-1:IMSS
[17] = biological target: HLA-B*15:17; conditions: source organism: Entamoeba histolytica HM-1:IMSS
[18] = biological target: HLA-B*18:01; conditions: source organism: Entamoeba histolytica HM-1:IMSS
[19] = biological target: HLA-B*27:03; conditions: source organism: Entamoeba histolytica HM-1:IMSS
[20] = biological target: HLA-B*27:05; conditions: source organism: Entamoeba histolytica HM-1:IMSS
[21] = biological target: HLA-B*39:01
[22] = biological target: HLA-B*40:01; conditions: source organism: Entamoeba histolytica HM-1:IMSS
[23] = biological target: HLA-B*44:02; conditions: source organism: Entamoeba histolytica HM-1:IMSS
[24] = biological target: HLA-B*46:01
[25] = biological target: HLA-B*51:01
[26] = biological target: HLA-B*53:01; conditions: source organism: Entamoeba histolytica HM-1:IMSS
[27] = biological target: HLA-B*57:01
[28] = biological target: HLA-B*58:01; conditions: source organism: Entamoeba histolytica HM-1:IMSS
[29] = biological target: HLA-A*02:03; conditions: source organism: Escherichia coli O157:H7 str. Sakai
[30] = biological target: HLA-A*02:11; conditions: source organism: Escherichia coli O157:H7 str. Sakai
[31] = biological target: HLA-A*02:12; conditions: source organism: Escherichia coli O157:H7 str. Sakai
[32] = biological target: HLA-A*02:16; conditions: source organism: Escherichia coli O157:H7 str. Sakai
[33] = biological target: HLA-A*69:01; conditions: source organism: Escherichia coli O157:H7 str. Sakai
[34] = biological target: HLA-A*80:01; conditions: source organism: Escherichia coli O157:H7 str. Sakai
[35] = source organism: Entamoeba histolytica HM-1:IMSS
[36] = source organism: Escherichia coli O157:H7 str. Sakai

## NPAACSYMV
[1]
  Kd: ≥ 5 µM
[2]; [35]
  Kd: ≥ 20 µM
[3]; [35]
  Kd: ≥ 20 µM
[4]
  Kd: ≥ 20 µM
[5]
  Kd: ≥ 5 µM
[6]; [35]
  Kd: ≥ 20 µM
[7]; [35]
  Kd: ≥ 20 µM
[8]; [35]
  Kd: ≥ 20 µM
[9]; [35]
  Kd: 0.122 µM
[10]
  Kd: ≥ 5 µM
[11]
  Kd: ≥ 5 µM
[12]
  Kd: ≥ 5 µM
[13]; [35]
  Kd: 0.0283 µM
[14]
  Kd: ≥ 5 µM
[15]
  Kd: ≥ 5 µM
[16]
  Kd: ≥ 20 µM
[17]
  Kd: ≥ 20 µM
[18]
  Kd: ≥ 20 µM
[19]
  Kd: ≥ 20 µM
[20]
  Kd: ≥ 5 µM
[21]; [35]
  Kd: 0.232 µM
[22]
  Kd: ≥ 5 µM
[23]
  Kd: ≥ 5 µM
[24]; [35]
  Kd: ≥ 20 µM
[25]; [35]
  Kd: ≥ 20 µM
[26]
  Kd: ≥ 5 µM
[27]; [35]
  Kd: ≥ 20 µM
[28]
  Kd: ≥ 5 µM

## HQIWLALRY
[2]; [36]
  Kd: ≥ 20 µM
[29]
  Kd: ≥ 20 µM
[30]
  Kd: ≥ 20 µM
[31]
  Kd: ≥ 20 µM
[32]
  Kd: ≥ 20 µM
[3]; [36]
  Kd: ≥ 20 µM
[6]; [36]
  Kd: ≥ 20 µM
[7]; [36]
  Kd: ≥ 20 µM
[8]; [36]
  Kd: ≥ 20 µM
[9]; [36]
  Kd: 0.0016 µM
[13]; [36]
  Kd: ≥ 20 µM
[33]
  Kd: ≥ 20 µM
[34]
  Kd: 0.0072 µM
[21]; [36]
  Kd: ≥ 20 µM
[24]; [36]
  Kd: ≥ 20 µM
[25]; [36]
  Kd: ≥ 20 µM
[27]; [36]
  Kd: ≥ 20 µM
